Assay results: the DeepSol protein solubility set

Assay: soluble on expression in E. coli; label from the status in PepcDB or PDB records

Sequence	soluble on expression in E. coli
HMTELLKNHVAGQWIAGTGAGITLTDPVTGVALVRVSSEGLDLARAFSFAREDGGAALRALTYAQRAARLADIVKLLQAKRGDYYAIATANSGTTRNDSAVDIDGGIFTLSYYAKLGASLGEVHALRDGSAESLSKDRSFSAQHVLSPTRGVALFINAFNFPSWGLWEKAAPALLSGVPVIVKPATATAWLTQRMVADVVDAGILPPGALSIICGSSAGLLDQIRSFDVVSFTGSADTAATLRAHPAFVQRGARLNVEADSLNSAILCADATPDTPAFDLFIKEVVREMTVKSGQKCTAIRRAFVPEAALEPVLEALKAKLAKITVGNPRNDAVRMGSLVSREQYENVLAGIAALREEAVLAYDSSAVPLIDADANIAACVAPHLFVVNDPDNATLLHDVEVFGPVASVAPYRVTTDTNALPEAHAVALARRGQGSLVASIYSNDDAHLGRLALELADSHGRVHAISPSVQHSQTGHGNVMPMSLHGGPGRAGGGEELGGLRALAFYHRRSAIQAASAAIGTLTQATHWPAA	soluble
STKFPTLKRLFGEAQAAWLVKESEQAVLEIDAFCKQHHIDAQLSLKGVYYTATNHVQAGSMQPVVDELSRLGVNSWRRCKEDELHANTGSPRHLEGFHSSVAASVQPALLARGLRRVALEMGIEIFENTPMTKLDFGQPATVSTPDAQIKAKQVVLALNAWMVEHFTQFKNSIVVVSSDMVITKPLGESLRKTGWQAGTSVLDSRIFVHYYRDTPDGRLMLGKGGNQFSFNNQVDVMFNKPTRYQNLLRKSFDKLFPSLKEAEFEYSWTGGSDRSTSGFPFFGKLNEQRNVFYGFGYSGNGVAQTRMGGKILSSMVLGLDNEWTRSGLAKGPLGHFPPEPFRWIGAMTVRNAVRRKEEAEDCGQKPFIWDKWLAKLAGPAGKADKLD	not soluble
MSLNKEQLKSLVIKTIDENREKILKIGQGIYKNPEYGYKEFKTTEAVSNFFEQELNLSVEKNIAVTGCKADANSSKKGPHISILGELDGISCKEHKDANEIGASHTCGHNIQIAGMLGAAVGLVKSGVLEHLDGKVSFMATPAEEFIELEYREQLKKEGKITYFGGKQELIKRGYFDDIDISMMFHASDLGEDKALVGPESNGFVGKKVKFIGKESHAGSAPHDGINALNAAMLAINNVNALRETFKESERVRFHPIITKGGDIVNVVPADVHMESYVRARTINGMIDANERINKALMAGGMAVGADVEITEIPGYLPILRYKSLDNLFKNNLEDLGLKGKVIDGGDFTGSFDFGDVSHIMPTLHPMIGGVKGALHTRDFEIVDEDLAYIIPAKAMALTVVDLLFDNAKDAKDILDTFTPVMTKKEYLTFLEKHDKTEGHHHHHH	soluble
MDTKNLTAVQLMELDSCTRCGECVKWCPTYAASGQKPGLAPRDKILRWRQYMNKSYGLKAKLFGPTEIPQSELEEFKDDVHGCTTCGICATVCESGINTVELWESLRTNLVKKGIGPFGKQGMFPKLEHHHHHH	not soluble
MAHHHHHHMPINPEYIPLPKSKEMFAIASWRDSPGLNATPAAHPGVSGSPHLASLDALRNGKGMAGMHAAATTTTTTTNTVTAAGGSLLPPAVQPAEDSKDAAKSKAPLTVAAGKKKKRKPASGATTSTASVAGSGVRSDDVDDFFVHILLPSCVSMQTLEFELQAQTTPLKSIEVGLPKVLFPRKPVGGAGGDASPPTTTALAPAVASAKIVSSPSCAPAVNPTNNELSLPLMRLPPADLPEPAPSESSCAAPPSASAAAAAHVNGDGTASAAAASGEHHGGEYQVSLLFAEKAEAEKTVTFVQRRWPTAAVSLASRSRSVLNATLVLKGMPNQAKTETVLTEMQNLPHTPSYVRLLRSERGVFKGVVFVKYANCEIAEECKLRLEKFVLGSRPLKVEFKKKSTAAASVSAAVIESKRSLQELVRELRVSAEHEGFHLSRSDVAKEALKVLKQLCQSYGLLFDMNDQQVTVRRVLGSNGIGSEKPSPALRPQSMAPAWAPATPAPLRPMDFKGISHWKDIRSQASTLGIMRPLGPEDGKPAFSAGRGRPL	not soluble
MSFYSAHQLALALEGLQRALDEIGIYSDILEDALLIACNVPVAEKTSILNDFQRADTINYGGLAAAIRANLAPDVCERRITEFQKKYAHGTDDQRLELLSDESVWRLEAYEAFADAEPLSTLEKIRLGVIGGPIDSIDPNWPLRKIAPERFLNDRWSRAVHDPRRIRRKIIGHRLPYRTKAEPDVPYGIPKRARLAARENSGPVRAPPLLGGAHPGQFRARGPAGVGVVSRHTRQFGAARGVLRGPTGNRVVPLFPVQIRARPPAPSQTIIRVQETERVKLEPTDNSYEEQKPPLLEN	not soluble
MGSDKIHHHHHHMGEAIEVAEGALWMRLPLPMKLDHVNVYAFDEGDSWTVVDTGMSSNKTRRIWEQLMAGPLGGKPVRRVVVTHHHPDHIGNAGWFQSEHGAELVTTRTAWLFARMLTLDVQESWPEETLAYYRSAGMDPEVYDTRKADRPFNFADTVYPMPLGFTRVQQGDVFRMGGRDWDIHMGNGHAPEHATLWSRDDNLVLTGDQVLSSISPNIGVYATEPEADPLAEWLEACERLAALARPEHLALGGHKLPFTRLPLRMRQLIDNHHGALERLMEFLETPKSAAECFPTLFKRTIGPGEYGLALVEAVAHVNHLYRTGQVTRTRRSDEAWVYQRR	not soluble
MSYNSIRLPQDLPIYYKNFFPVKPFTKWLCYGQNYGDYFNRREFTFILADDVHIRYRSYNDEHSFVKALSSTNPEKLDIGAVYNHEPINNKRYTDYQAVERELVFDIDLTDYDPVRNCCKDATVCPKCWKFMVLAVRILDFQLEEMFNFKARMWVFSGRRGVHCWVGDKKARMLNNNQRSAIATRLNLFKKNGQCEVTEGRAKLTRVPPTVRDAFNVALKDGVFEKMIYEQGWLDNDRFIIDYQYMSEFGRDDLRRISESFKTPQERWHMLRGLFDNDYRKTLSQNDGLLDFVNNARSRPKKVLLYFVLQRCYPRLDANVTTGTNHLLKSPFCIHPKTGNVAVPLNVEKIGEFDVSKCPRIDHVVEELSSLLTERGNDGDEDSKNRKFLAYKHGALSPYVENFEMFVSACIS	not soluble
MLSMLSKISFTRPQAQELLRRLQAPRHLLQVVLGPRQVGKTTLALQVAQTCGLPYHYASADEPTLKEAPWLETQWTLARRLAQAGEALLVLDEAQKVLGWSETLKRLWDEDTLRGLPLKVVLLGSSPLLLQKGLSESLAGRFEVLHLPHWSFYEMERAFGYTLPEYLYFGGYPGAAPLREEPERFARYIKDALLETTLGRDILLHTRVEKPALLRRVLELGLLYSGQVLSYTKMLGQLQDAGNTVTLAYYLELLEGAGLLGALQKYAAEPIRRRASSPKLLALNTGLITAVLGLSPEEVWEDAALMGRLVETAVGAHLLAHAHQGGFEVYYWRERDQEVDFVLQKGKRLLALEVKSAPSKRTQGLEAFTRTFGAKGLLVGPEGVPLEAFLRDNPLNFL	soluble
MSKLVGNLIPNTFFITKGSGESDLELHAGSYHMALFDAGISDFNIMTYSSVLPATAHLATMDEIDLPPFGSELKTIMAVSHGYQDEFVSAGVVYAWMYKDENFDEKAGGLVCEVSGRYRIEELESRLIRVINDLHQKTYSQYYLGELNFITEGITIEKRYGTALAGLCFMDFIQPEVQKK	not soluble
MSFDGFFLHHLTNELQEQIEKGRIQKVNQPFDHELVLTIRNNRRNYKLLLSAHPVFGRIQTTEANFQNPQNPNTFTMIMRKYLQGAVIETIQQIENDRILEIVVSNKNEIGDHIKATLVVEIMGKHSNIILIDKNEHKIIESIKHVGFSQNSYRTILPGSTYIAPPKTKAINPFDISDQTLFELLQTNDLSPKNLQQLLQGLGRDTALELSHCLKDNKLNDFRQFFSREYYPSLTEKSFSAVQFSSSHETFQSLGQLLDYYYQEKAEKDRIAQQASDLIHRVQSELEKNIKKLAKQQDELLATENAEEFRQKGELLTTYLSMVPNNQDVVVLDNYYTNQTIEISLDRALTPNQNAQRYFKKYQKLKEAVKHLKGIISDTENTITYLESVETSLNHASMEDINDIREELVETGFIKRRAHDKQHKRKK	not soluble
SESLVVCDVAEDLVEKLRKFRFRKETHNAAIIMKIDKDERLVVLDEELEGVSPDELKDELPERQPRFIVYSYKYQHDDGRVSYPLCFIFSSPVGCKPEQQMMYAGSKNKLVQTAELTKVFEIRNTEDLTEEWLREKLG	soluble
